Laboratory results taken from article PMC4144707 (Biochemistry, 2014).
Where no end group is shown, it is not given here.

B1: FGFR3 TM–JM (WT) peptide, FGFR3 (369–407) with two N-terminal arginines (peptide)
peptide: RRAGSVYAGILSYGVGFFLFILVVAAVTLCRLRSPPKKGLG-NH2
modifications: also: (5,5,5-d3) leucine at 385 or 388
B2: FGFR3 TM–JM (A391E) peptide, FGFR3 (369–407) with two N-terminal arginines (peptide)
peptide: RRAGSVYAGILSYGVGFFLFILVVEAVTLCRLRSPPKKGLG-NH2
modifications: also: (5,5,5-d3) leucine at 385 or 388

Target: the molecule itself
Assay: deuterium MAS solid-state NMR

Protein	binding result
B1	binds
B2	binds
